{"source": "patent US7314747B1", "about": "“SMRT co-repressors, transcriptional co-repressors that interact with nuclear hormone receptors” (The Salk Institute for Biological Studies, priority 1995, dated 2008)", "molecules": {"B1": {"name": "v-erbA (naturally occurring oncogene, oncogenic TR variant) (receptor)", "chain": "REEQVTSEQAKFWLGLGGGRVSPPGPECIEKPATERRIDKGEEMGETTVQRDAKMAPEKMATPKTVGTSCYQCGTATGCNCVTASAPPPPYVGSGLYPSLAGAGEQGQGGDTPRGAEQPRAEPGHAGQAPGPALTDWARIREELASTGPPVVAMPVVIKTEGPAWTPLEPEDTRWLDGKHKRKSSQCLVKSSMSGYIPSCLDKDEQCVVCGDKATGYHYRCITCEGCKSFFRRTIQKNLHPTYSCTYDGCCVIDKITRNQCQLCRFKKCISVGMAMDLVLDDSKRVAKRKLIEENRERRRKEEMIKSLQHRPSPSAEEWELIHVVTEAHRSTNAQGSHWKQRRKFLLEDIGQSPMASMLDGDKVDLEAFSEFTKIITPAITRVVDFAKNLPMFSELPCEDQIILLKGCCMEIMSLRAAVRYDPESETLTLSGEMAVKREQLKNGGLGVVSDAIFDLGKSLSAFNLDDTEVALLQAVLLMSSDRTGLICVDKIEKCQESYLLAFEHYINYRKHNIPHFWSKLLMKVADLRMIGAYHASRFLHMKVECPTELSPQEV"}, "B2": {"name": "Gal4-c-SMRT (aa 981 to C terminus) (other)", "chain": "MKLLSSIEQACDICRLKKLKCSKEKPKCAKCLKNNWECRYSPKTKRSPLTRAHLTEVESRLERLEQLFLLIFPREDLDMILKMDSLQDIKALLTGLFVQDNVNKDAVTDRLASVETDMPLTLRQHRISATSSSEESSNKGQRQLTVSAPHHASPDPPAPPASASDPHREKTQSKPFSIQELELRSLGYHGSSYSPEGVEPVSPVSSPSLTHDKGLPKHLEELDKSHLEGELRPKQPGPVKLGGEAAHLPHLRPLPESQPSSSPLLQTAPGVKGHQRVVTLAQHISEVITQDYTRHHPQQLSAPLPAPLYSFPGASCPVLDLRRPPSDLYLPPPDHGAPARGSPHSEGGKRSPEPNKTSVLGGGEDGIEPVSPPEGMTEPGHSRSAVYPLLYRDGEQTEPSRMGSKSPGNTSQPPAFFSKLTESNSAMVKSKKQEINKKLNTHNRNEPEYNISQPGTEIFNMPAITGTGLMTYRSQAVQEHASTNMGLEAIIRKALMGGGKAKVSGRPSSRKAKSPAPGLASGDRPPSVSSVHSEGDCNRRTPLTNRVWEDRPSSAGSTPFPYNPLIMRLQAGVMASPPPPGLPAGSGPLAGPHHAWDEEPKPLLCSQYETLSDSE", "notes": "also called vertebrate corepressor"}, "B3": {"name": "TR160 (rTRα Pro 160->Arg mutant, full length) (receptor, rat (printed as rTRα), UniProt P63059 1-492, looked up)", "chain": "MEQKPSKVECGSDPEENSARSPDGKRKRKNGQCPLKSSMSGYIPSYLDKDEQCVVCGDKATGYHYRCITCEGCKGFFRRTIQKNLHPTYSCKYDSCCVIDKITRNQCQLCRFKKCIAVGMAMDLVLDDSKRVAKRKLIEQNRERRRKEEMIRSLQQRPERTPEEWDLIHVATEAHRSTNAQGSHWKQRRKFLPDDIGQSPIVSMPDGDKVDLEAFSEFTKIITPAITRVVDFAKKLPMFSELPCEDQIILLKGCCMEIMSLRAAVRYDPESDTLTLSGEMAVKREQLKNGGLGVVSDAIFELGKSLSAFNLDDTEVALLQAVLLMSTDRSGLLCVDKIEKSQEAYLLAFEHYVNHRKHNIPHFWPKLLMKVTDLRMIGACHASRFLHMKVECPTELFPPLFLEVFEDQEV", "notes": "mature; 35S-labelled probe; also called rTRα R160 mutant; TR160 mutant"}, "B4": {"name": "m-SMRTβ (amino acids 1 to 813): construct containing the entire amino terminus of m-SMRTβ (protein, UniProt Q9WU42 1-813, looked up, fragment)", "chain": "MSGSTQPVAQTWRAAEPRYPPHGISYPVQIARSHTDVGLLEYQHHPRDYTSHLSPGSIIQPQRRRPSLLSEFQPGSERSQELHLRPESRTFLPELGKPDIEFTESKRPRLELLPDTLLRPSPLLATGQPSGSEDLTKDRSLAGKLEPVSPPSPPHADPELELAPSRLSKEELIQNMDRVDREITMVEQQISKLKKKQQQLEEEAAKPPEPEKPVSPPPIESKHRSLVQIIYDENRKKAEAAHRILEGLGPQVELPLYNQPSDTRQYHENIKINQAMRKKLILYFKRRNHARKQWEQRFCQRYDQLMEAWEKKVERIENNPRRRAKESKVREYYEKQFPEIRKQRELQERMQSRVGQRGSGLSMSAARSEHEVSEIIDGLSEQENLEKQMRQLAVIPPMLYDADQQRIKFINMNGLMDDPMKVYKDRQVTNMWSEQERDTFREKFMQHPKNFGLIASFLERKTVAECVLYYYLTKKNENYKSLVRRSYRRRGKSQQQQQQQQQQQQQQMARSSQEEKEEKEKEKEADKEEEKQDAENEKEELSKEKTDDTSGEDNDEKEAVASKGRKTANSQGRRKGRITRSMANEANHEETATPQQSSELASMEMNESSRWTEEEMETAKKGLLEHGRNWSAIARMVGSKTVSQCKNFYFNYKKRQNLDEILQQHKLKMEKERNARRKKKKTPAAASEETAFPPAAEDEEMEASGASANEEELAEEAEASQASGNEVPRVGECSGPAAVNNSSDTESVPSPRSEATKDTGPKPTGTEALPAATQPPVPPPEEPAVAPAEPSPVPDASGPPSPEPSPSPAAPPA", "modifications": "SMRTbeta"}}, "key": {"E52-RAR interaction": {"target": "T1, E52-RAR interaction (Homo sapiens, UniProt P10276)", "T1 construct": "hRAR (amino acids 186-462); expressed in transfected cells; host or cells: Y190 yeast cells", "T1 sequence (P10276 186-462)": "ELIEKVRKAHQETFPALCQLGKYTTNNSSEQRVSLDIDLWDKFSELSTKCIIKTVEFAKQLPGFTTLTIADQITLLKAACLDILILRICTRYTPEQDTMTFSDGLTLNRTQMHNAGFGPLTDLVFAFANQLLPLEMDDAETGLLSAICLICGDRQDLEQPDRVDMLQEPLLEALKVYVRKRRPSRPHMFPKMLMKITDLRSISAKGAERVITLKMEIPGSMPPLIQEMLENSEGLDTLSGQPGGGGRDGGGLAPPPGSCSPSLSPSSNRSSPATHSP", "test": "Yeast two-hybrid assay, E52-RAR interaction", "assay_type": "cell-based", "conditions": "3 μM ligand", "method": "Transformants were selected onto DO-Leu-Trp-His plates containing 40 mM 3-aminotriazole (Sigma) for 3-4 days. Surviving yeast colonies were picked as primary positives and restreaked on selection plates to isolate single clones. Activation domain plasmids were rescued from the selected positive transformants for further analysis. Each clone was evaluated by testing its potential interaction with several other nuclear receptors using the yeast two-hybrid assays. […] Quantitative liquid assay of β-galactosidase was performed on positive clones 16 hr after treating the yeast cells with no ligand, or with 3 μM ligand."}, "[1]": {"target": "GST-SMRT (GST fusion of the C-SMRT encoded by the yeast two hybrid clone) (human) (UniProt Q9Y618)", "test": "far-western: 35S-labelled receptor on immobilized GST-SMRT, phosphoimager"}, "[2]": {"target": "T2, GST-SMRT (GST fusion of the C-SMRT encoded by the yeast two hybrid clone) (human, UniProt Q9Y618 2000-2514)", "T2 construct": "also called immobilized GST-SMRT; not shown: glutathione S-transferase (GST) tag", "test": "far-western: 35S-labelled receptor on GST-SMRT, phosphoimager"}, "EcR A483T": {"target": "T3, EcR A483T (Drosophila, UniProt P34021 1-878)", "T3 construct": "CMV vector, cotransfected with VP16-USP; also called repression-defective EcR allele", "T3 sequence (looked up)": "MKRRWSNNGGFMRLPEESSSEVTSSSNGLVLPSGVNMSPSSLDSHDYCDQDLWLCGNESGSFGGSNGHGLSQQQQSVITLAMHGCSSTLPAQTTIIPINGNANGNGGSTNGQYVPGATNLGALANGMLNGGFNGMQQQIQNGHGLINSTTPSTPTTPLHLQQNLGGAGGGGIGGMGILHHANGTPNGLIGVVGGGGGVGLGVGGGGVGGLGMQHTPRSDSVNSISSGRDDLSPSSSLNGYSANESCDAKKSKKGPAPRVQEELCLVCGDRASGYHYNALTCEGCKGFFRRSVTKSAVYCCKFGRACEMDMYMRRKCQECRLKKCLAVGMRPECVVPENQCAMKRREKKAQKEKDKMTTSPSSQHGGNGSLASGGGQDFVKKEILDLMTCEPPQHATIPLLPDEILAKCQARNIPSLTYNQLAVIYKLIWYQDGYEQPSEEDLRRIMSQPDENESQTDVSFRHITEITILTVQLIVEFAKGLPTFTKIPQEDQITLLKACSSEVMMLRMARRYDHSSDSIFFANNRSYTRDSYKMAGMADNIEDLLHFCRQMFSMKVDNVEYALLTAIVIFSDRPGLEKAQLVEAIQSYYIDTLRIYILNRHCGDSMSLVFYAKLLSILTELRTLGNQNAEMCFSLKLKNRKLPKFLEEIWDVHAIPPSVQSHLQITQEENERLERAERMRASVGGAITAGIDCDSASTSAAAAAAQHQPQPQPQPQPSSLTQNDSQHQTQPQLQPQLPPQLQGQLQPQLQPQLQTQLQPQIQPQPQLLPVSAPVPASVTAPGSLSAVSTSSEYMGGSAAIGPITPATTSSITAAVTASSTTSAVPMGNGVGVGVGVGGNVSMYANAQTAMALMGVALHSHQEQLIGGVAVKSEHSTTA", "test": "mammalian two-hybrid in CV-1 cells (with VP16-USP)"}, "[3]": {"tested_on": "GAL4-TK-luciferase reporter in CV-1 cells", "test": "GAL4-SMRT amino terminus fusions cotransfected with GAL4-TK-luciferase reporter in CV-1 cells", "assay_type": "cell-based, Monkey", "conditions": "luciferase normalized to β-galactosidase", "method": "Experiments were performed using the plasmids pCMX-GAL4 DBD and pMH100-TK-luc (Nagy et al., (1997), supra). Standard PCR amplifications were used to generate GAL4 fusion constructs. All constructs were verified by double-stranded sequencing to confirm identity and reading frame.\nMonkey CV-1 cells were grown in DMEM supplemented with 10% resin-charcoal stripped fetal bovine serum (FBS), 50 units/ml of penicillin G, and 50 μg/ml of streptomycin sulfate at 37° C. in 7% CO2. V-1 cells (60-70% confluence, 48-well plate) were cotransfected with 16 ng of pCMX-GAL4, 100 ng of pMH100-TK-luc, and 100 ng of pCMX-β galactosidase in 200 μl of DMEM containing 10% super-stripped fetal calf serum (FCS) by the N-(1-(2,3-dioleoyloxy)propyl)-N,N,N-trimethylammonium methylsulfate (DOTAP)-mediated procedure (Nagy et al., (1997), supra). The amount of DNA in each transfection was kept constant by addition of pCMX. After 24 hr, the medium was replaced; cells were harvested and assayed for luciferase activity 36 to 48 hr after transfection. […]\nBased on the high degree of identity between regions of the SMRT amino terminus and the corresponding N-CoR region, the ability of regions in the SMRT amino terminus to act in transcriptional repression was examined. […] Repression was determined relative to the basal activity of the reporter in the presence of the GAL-DBD alone."}}}
{"molecule": "CC1=C(/C=C/C(C)=C/C=C/C(C)=C/C(=O)O)C(C)(C)CCC1", "note": "[atRA, all-trans retinoic acid]", "values": [{"measurement": "dissociation of the interaction between E52 and RAR by ligand", "setting": "E52-RAR interaction", "value": "can be dissociated"}]}
{"molecule": "RAR403 (carboxy-terminal deletion mutant of RAR) (from UniProt P10276 1-403) (receptor)", "values": [{"measurement": "fold interaction relative to wild type RAR (phosphoimager)", "setting": "[1]", "value": 4, "unit": "fold"}]}
{"molecule": "B1", "values": [{"measurement": "fold interaction relative to hTRβ (phosphoimager)", "setting": "[2]", "value": 18, "unit": "fold"}]}
{"molecule": "B2", "values": [{"measurement": "binding result", "setting": "EcR A483T", "value": "no binding"}]}
{"molecule": "B3", "values": [{"measurement": "fold lower signal relative to rTRα (phosphoimager)", "setting": "[2]", "value": 10, "unit": "fold lower"}]}
{"molecule": "B4", "values": [{"measurement": "repression relative to basal reporter activity with GAL-DBD alone", "setting": "[3]", "value": "about 2.6 fold"}]}
